According to patent US20100260668A1 (published 2010):
Several values for one entry are separate records, joined by “and”; a condition that tells them apart may be missing. Equal values may be shown once.

Assays:
[1] = target: human DLL4 extracellular domain (human, UniProt Q9NR61 27-529); experiment: cell-based or functional assay
DLL ECD His tag = target: T1, DLL ECD His tag (UniProt Q9NR61 27-529, limits assumed); experiment: Biacore SPR
T1 construct: extracellular domain; Bought reagent; also called DLL4; DLL-4; not shown: His tag

IGF-2 = target: T2, IGF-2 (UniProt P01344 25-91); experiment: Biacore SPR
T2 construct: Bought reagent
Protocol: The BIACORE assay (Biacore, Inc, Piscataway, N.J.) determines the affinity of antibodies or DVD-Ig with kinetic measurements of on-rate and off-rate constants. Binding of antibodies or DVD-Ig to a target antigen (for example, a purified recombinant target antigen) is determined by surface plasmon resonance-based measurements with a Biacore® 1000 or 3000 instrument (Biacore® AB, Uppsala, Sweden) using running HBS-EP (10 mM HEPES [pH 7.4], 150 mM NaCl, 3 mM EDTA, and 0.005% surfactant P20) at 25° C. […] For example, approximately 5000 RU of goat anti-mouse IgG, (Fcγ), fragment specific polyclonal antibody (Pierce Biotechnology Inc, Rockford, Ill.) diluted in 10 mM sodium acetate (pH 4.5) is directly immobilized across a CM5 research grade biosensor chip using a standard amine coupling kit according to manufacturer's instructions and procedures at 25 μg/ml. Unreacted moieties on the biosensor surface are blocked with ethanolamine. Modified carboxymethyl dextran surface in flowcell 2 and 4 is used as a reaction surface. Unmodified carboxymethyl dextran without goat anti-mouse IgG in flow cell 1 and 3 is used as the reference surface. For kinetic analysis, rate equations derived from the 1:1 Langmuir binding model are fitted simultaneously to association and dissociation phases of all eight injections (using global fit analysis) with the use of Biaevaluation 4.0.1 software. Purified antibodies or DVD-Ig are diluted in HEPES-buffered saline for capture across goat anti-mouse IgG specific reaction surfaces. Antibodies or DVD-Ig to be captured as a ligand (25 μg/ml) are injected over reaction matrices at a flow rate of 5 μl/min. The association and dissociation rate constants, kₒₙ (M⁻¹s⁻¹) and koff (s⁻¹) are determined under a continuous flow rate of 25 μl/min. Rate constants are derived by making kinetic binding measurements at different antigen concentrations ranging from 10-200 nM. The equilibrium dissociation constant (M) of the reaction between antibodies or DVD-Igs and the target antigen is then calculated from the kinetic rate constants by the following formula: KD=koff/kₒₙ. Binding is recorded as a function of time and kinetic rate constants are calculated.

[2] = target: T3, DLL4 ECD/His tag (R&D 1506-D4-050) (UniProt Q9NR61 27-529); experiment: direct bind ELISA, DLL4 on plate; DLL4 VD C-term.; HC Short, LC Long
T3 construct: extracellular domain; Bought antigen coated on the ELISA plate; not shown: His tag

MSP Receptor ECD-His tag = target: T4, MSP Receptor ECD-His tag (UniProt Q04912 25-957, limits assumed); experiment: Biacore SPR
T4 construct: extracellular domain; Bought reagent; also called RON; not shown: His tag

B1: AB015 (antibody, human IgG1, kappa)
heavy: not shown
light: DIQMTQSPSSLSASVGDRVTITCRASQDVSTAVAWYQQKPGKAPKLLIYSASFLYSGVPSRFSGSGSGTDFTLTISSLQPEDFATTYYCQQSYTGTVTFGQGTKVEIKRTVAAPSVFIFPPSDEQLKSGTASVVCLLNNFYPREAKVQWKVDNALQSGNSQESVTEQDSKDSTYSLSSTLTLSKADYEKHKVYACEVTHQGLSSPVTKSFNRGEC
Soluble Flt1 Assay, % of Neutralization @ 9.2 nM Ab [1]: 75.2%
Soluble Flt1 Assay, % of Neutralization @ 27.7 nM Ab [1]: 78.7%
Soluble Flt1 Assay, % of Neutralization @ 83.3 nM Ab [1]: 86.6%

B2: AB015 (antibody, human IgG1, kappa)
heavy: not shown
light: DIQMTQSPSSLSASVGDRVTITCRASQDVSTAVAWYQQKPGKAPKLLIYSASFLYSGVPSRFSGSGSGTDFTLTISSLQPEDFATTYYCQQSYTGTVTFGQGTKVEIKRTVAAPSVFIFPPSDEQLKSGTASVVCLLNNFYPREAKVQWKVDNALQSGNSQESVTEQDSKDSTYSLSSTLTLSKADYEKHKVYACEVTHQGLSSPVTKSFNRGEC
Kd (DLL ECD His tag): 0.414 nM
koff (DLL ECD His tag): 0.000166 s⁻¹
kon (DLL ECD His tag): 400000 M⁻¹ s⁻¹

B3: DVD041 (bispecific antibody, human IgG1, lambda)
heavy: not shown
light: DIQMTQSPSSLSASVGDRVTITCSASQDISNYLNWYQQKPGKAPKVLIYFTSSLHSGVPSRFSGSGSGTDFTLTISSLQPEDFATYYCQQYSTVPWTFGQGTKVEIKRTVAAPQSVLTQPPSVSAAPGQKVTISCSGSSSNIENNHVSWYQQLPGTAPKLLIYDNNKRPSGIPDRFSGSKSGTSATLGITGLQTGDEADYYCETWDTSLSAGRVFGGGTKLTVLGQPKAAPSVTLFPPSSEELQANKATLVCLISDFYPGAVTVAWKADSSPVKAGVETTTPSKQSNNKYAASSYLSLTPEQWKSHRSYSCQVTHEGSTVEKTVAPTECS
notes: N-terminal VD VEGF, C-terminal VD IGF1,2; also called DVD041H; DVD041L
Kd (IGF-2): < 0.0124 nM
koff (IGF-2): < 1e-06 s⁻¹
kon (IGF-2): 80900 M⁻¹ s⁻¹

B4: DVD486 (bispecific antibody, human IgG1, kappa)
heavy: not shown
light: DIQMTQSPSSLSASVGDRVTITCRASQVIRRSLAWYQQKPGKAPKLLIYAASNLASGVPSRFSGSGSGTDFTLTISSLQPEDFATYYCQQSNTSPLTFGQGTKVEIKRTVAAPSVFIFPPDIQMTQSPSSLSASVGDRVTITCRASQDVSTAVAWYQQKPGKAPKLLIYSASFLYSGVPSRFSGSGSGTDFTLTISSLQPEDFATTYYCQQSYTGTVTFGQGTKVEIKRTVAAPSVFIFPPSDEQLKSGTASVVCLLNNFYPREAKVQWKVDNALQSGNSQESVTEQDSKDSTYSLSSTLTLSKADYEKHKVYACEVTHQGLSSPVTKSFNRGEC
notes: DVD-Ig; outer AB071 (VEGF), inner AB015 (DLL4); HC short, LC long linker; also called DVD486H; DVD486L
EC50 [2]: 0.59 nM

B5: AB005 (antibody, human IgG1, kappa, V domains shown)
VH: EVQLVQSGGGLVKPGGSLRLSCAASGFTFSSYAMHWVRQAPGKGLEWVAVISYDGSNKYYADSVKGRFTISRDNSKNTLYLQMNSLRAEDTAVYYCARFSGWPNNYYYYGMDVWGQGTTVTVSS
VL: DVVMTQSPLSLPVTPGEPASISCRSSQSLLHSNGFNYVDWYLQKPGQSPHLLIYFGSYRASGVPDRFSGSGSGTDFTLKISRVEAEDVGVYYCMQALQTPPWTFGQGTKVEIRR
Kd (MSP Receptor ECD-His tag): 20.2 nM and 20.1 nM
koff (MSP Receptor ECD-His tag): 0.000739 s⁻¹
kon (MSP Receptor ECD-His tag): 36600 M⁻¹ s⁻¹

B6: DVD530 (bispecific antibody, human IgG1, kappa, lambda, L234A L235A)
heavy: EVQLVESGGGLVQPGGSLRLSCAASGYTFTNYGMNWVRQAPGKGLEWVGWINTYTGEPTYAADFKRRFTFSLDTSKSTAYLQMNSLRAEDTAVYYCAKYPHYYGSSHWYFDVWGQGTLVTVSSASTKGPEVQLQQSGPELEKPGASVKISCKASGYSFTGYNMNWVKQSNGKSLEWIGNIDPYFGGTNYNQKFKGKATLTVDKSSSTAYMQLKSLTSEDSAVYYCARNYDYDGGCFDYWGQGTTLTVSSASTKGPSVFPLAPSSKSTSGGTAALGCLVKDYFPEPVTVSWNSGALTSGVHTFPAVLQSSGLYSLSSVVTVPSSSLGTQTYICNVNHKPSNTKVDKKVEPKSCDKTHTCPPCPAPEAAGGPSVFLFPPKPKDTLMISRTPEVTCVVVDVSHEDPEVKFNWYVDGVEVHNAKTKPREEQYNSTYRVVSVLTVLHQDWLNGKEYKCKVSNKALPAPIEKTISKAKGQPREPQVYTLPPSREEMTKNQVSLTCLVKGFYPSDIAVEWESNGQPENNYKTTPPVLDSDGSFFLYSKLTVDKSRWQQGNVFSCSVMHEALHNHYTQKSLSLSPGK
light: DIQMTQSPSSLSASVGDRVTITCSASQDISNYLNWYQQKPGKAPKVLIYFTSSLHSGVPSRFSGSGSGTDFTLTISSLQPEDFATYYCQQYSTVPWTFGQGTKVEIKRTVAAPSVFIFPPQAVVTQESALTTSPGETVTLTCRSSTGAVTTSNYANWVQEKPDHLFTGLIGGTNNRAPGVPARFSGSLIGDKAALTITGAQTEDEAIYFCALWYSNHWVFGGGTKLTVLGQPKAAPSVTLFPPSSEELQANKATLVCLISDFYPGAVTVAWKADSSPVKAGVETTTPSKQSNNKYAASSYLSLTPEQWKSHRSYSCQVTHEGSTVEKTVAPTECS
notes: DVD-Ig; HC short, LC long linker; also called DVD530H; DVD530L
EC50 [2]: 0.22 nM

B7: DVD534 (bispecific antibody, human IgG1, kappa, lambda, L234A L235A)
heavy: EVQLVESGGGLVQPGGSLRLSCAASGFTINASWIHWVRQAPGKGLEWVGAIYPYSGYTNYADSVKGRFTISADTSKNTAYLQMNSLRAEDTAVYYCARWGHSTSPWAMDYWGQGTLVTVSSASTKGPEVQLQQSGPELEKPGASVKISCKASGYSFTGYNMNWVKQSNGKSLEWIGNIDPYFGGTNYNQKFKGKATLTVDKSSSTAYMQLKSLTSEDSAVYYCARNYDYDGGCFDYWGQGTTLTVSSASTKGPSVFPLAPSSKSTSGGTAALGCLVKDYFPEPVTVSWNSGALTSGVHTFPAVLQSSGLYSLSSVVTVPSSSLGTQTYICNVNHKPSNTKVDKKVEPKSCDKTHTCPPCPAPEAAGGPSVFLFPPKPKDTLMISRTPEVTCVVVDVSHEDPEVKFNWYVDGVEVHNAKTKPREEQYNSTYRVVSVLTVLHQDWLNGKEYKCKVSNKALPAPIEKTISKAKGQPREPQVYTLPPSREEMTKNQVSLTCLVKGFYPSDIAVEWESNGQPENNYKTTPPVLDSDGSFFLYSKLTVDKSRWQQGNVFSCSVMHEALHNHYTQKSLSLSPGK
light: DIQMTQSPSSLSASVGDRVTITCRASQVIRRSLAWYQQKPGKAPKLLIYAASNLASGVPSRFSGSGSGTDFTLTISSLQPEDFATYYCQQSNTSPLTFGQGTKVEIKRTVAAPSVFIFPPQAVVTQESALTTSPGETVTLTCRSSTGAVTTSNYANWVQEKPDHLFTGLIGGTNNRAPGVPARFSGSLIGDKAALTITGAQTEDEAIYFCALWYSNHWVFGGGTKLTVLGQPKAAPSVTLFPPSSEELQANKATLVCLISDFYPGAVTVAWKADSSPVKAGVETTTPSKQSNNKYAASSYLSLTPEQWKSHRSYSCQVTHEGSTVEKTVAPTECS
notes: DVD-Ig; outer AB071 (VEGF), inner AB073 (DLL4); HC short, LC long linker; also called DVD534H; DVD534L
EC50 [2]: 0.47 nM
